The record followed here is the supplement of paper PMC9112550, “Optimization of the antimicrobial peptide Bac7 by deep mutational scanning” (BMC Biology, 2022).

This data set deals with Escherichia coli TOP10. The data set is described as follows: shrunken log2 fold change of peptide-encoding DNA abundance (4.5 h post-induction vs induction); higher = less antimicrobial activity (less host growth inhibition). The conditions noted are these: time post-induction: 4.5 h; library: site-saturation at positions 5, 18, 19, 20.
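Also: peptides expressed intracellularly from a pBAD plasmid library in pooled LB shake-flask culture, induced with 0.3% L-arabinose, DNA abundance read by NGS, three biological replicates, DESeq2 with apeglm shrinkage.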

Turning to RRIRTRPPRLPRPRPRPWPSPRP, the “shrunken log2 fold change” value was -0.00931.

Turning to RRIRTRPPRLPRPRPRPKYSPRP, the “shrunken log2 fold change” value is -0.413. Consider RRIRERPPRLPRPRPRPYRKPRP, for which the “shrunken log2 fold change” value was -0.264. RRIRRRPPRLPRPRPRPHAGPRP: the “shrunken log2 fold change” value was determined as 0.425. In the case of RRIRWRPPRLPRPRPRPVMRPRP, the “shrunken log2 fold change” value turned out to be 0.0188. The same measure for RRIRKRPPRLPRPRPRPRSMPRP: -0.164; for RRIRARPPRLPRPRPRPVIPPRP: -0.296. As to RRIRHRPPRLPRPRPRPRMMPRP, the “shrunken log2 fold change” value is -0.0987. Consider RRIRTRPPRLPRPRPRPDEFPRP, for which the “shrunken log2 fold change” value was -0.00523. In the case of RRIRNRPPRLPRPRPRPWPGPRP, the “shrunken log2 fold change” value turned out to be 0.281.

Regarding RRIRNRPPRLPRPRPRPLHIPRP, the “shrunken log2 fold change” value was -0.363. The result for RRIRSRPPRLPRPRPRPYMGPRP reads -0.776; that for RRIRWRPPRLPRPRPRPPYQPRP, -0.172; that for RRIRNRPPRLPRPRPRPKGRPRP, 0.0238. The same measure for RRIRCRPPRLPRPRPRPCQKPRP: -0.103; for RRIRMRPPRLPRPRPRPYKQPRP: -0.000436; for RRIRTRPPRLPRPRPRPESCPRP: 0.145. The result for RRIRFRPPRLPRPRPRPQPHPRP reads 0.166; that for RRIRFRPPRLPRPRPRPTPVPRP, 0.706; that for RRIRQRPPRLPRPRPRPKVTPRP, 0.0375. In the case of RRIRWRPPRLPRPRPRPAIKPRP, the “shrunken log2 fold change” value is 0.0964. RRIRYRPPRLPRPRPRPGKRPRP: the “shrunken log2 fold change” value is -0.0167.

Turning to RRIRFRPPRLPRPRPRPGDMPRP, the “shrunken log2 fold change” value is -0.311.

Turning to RRIRPRPPRLPRPRPRPPWKPRP, the “shrunken log2 fold change” value was 0.416. The same measure for RRIRCRPPRLPRPRPRPEHNPRP: -0.377; for RRIRIRPPRLPRPRPRPSSAPRP: -0.666; for RRIRCRPPRLPRPRPRPCGAPRP: 0.285. For the sequence RRIRRRPPRLPRPRPRPHFSPRP, the “shrunken log2 fold change” value was -0.187. The same measure for RRIRHRPPRLPRPRPRPESVPRP: 0.0222.

For RRIRNRPPRLPRPRPRPFRCPRP, the “shrunken log2 fold change” value is -0.0563. The result for RRIRDRPPRLPRPRPRPDFRPRP reads -0.0735. With RRIRWRPPRLPRPRPRPDVGPRP, the “shrunken log2 fold change” value turned out to be 0.181. RRIRRRPPRLPRPRPRPEKIPRP: the “shrunken log2 fold change” value was 0.164. For the sequence RRIRHRPPRLPRPRPRPVSKPRP, the “shrunken log2 fold change” value is -0.0396. The result for RRIRTRPPRLPRPRPRPDFNPRP reads -0.177; that for RRIRNRPPRLPRPRPRPQEYPRP, -0.578; that for RRIRGRPPRLPRPRPRPQYTPRP, -0.0367. For the sequence RRIRARPPRLPRPRPRPECKPRP, the “shrunken log2 fold change” value came out at 0.769. The same measure for RRIRERPPRLPRPRPRPTRAPRP: 0.571. On to RRIRQRPPRLPRPRPRPKLCPRP, for which the “shrunken log2 fold change” value is 0.0303. Regarding RRIRRRPPRLPRPRPRPKTIPRP, the “shrunken log2 fold change” value was determined as 0.0447. The same measure for RRIRKRPPRLPRPRPRPCENPRP: 0.0184; for RRIRDRPPRLPRPRPRPQFVPRP: -0.0477; for RRIRDRPPRLPRPRPRPIMYPRP: -0.0948.

RRIRPRPPRLPRPRPRPHWCPRP: the “shrunken log2 fold change” value was -0.159. The result for RRIRIRPPRLPRPRPRPMGAPRP reads -0.341; that for RRIRRRPPRLPRPRPRPQPEPRP, 0.0541. For RRIRWRPPRLPRPRPRPTIEPRP, the “shrunken log2 fold change” value stood at 0.145. The result for RRIRSRPPRLPRPRPRPNITPRP reads -0.582; that for RRIRVRPPRLPRPRPRPGAWPRP, 0.323.
